# According to IntAct's records for PubMed 16098514:
# B1: GTPase RhebL1 (Homo sapiens), Q8TAI7 (parent)
# chain: MPLVRYRKVVILGYRCVGKTSLAHQFVEGEFSEGYDPTVENTYSKIVTLGKDEFHLHLVDTAGQDEYSILPYSFIIGVHGYVLVYSVTSLHSFQVIESLYQKLHEGHGKTRVPVVLVGNKADLSPEREVQAVEGKKLAESWGATFMESSARENQLTQGIFTKVIQEIARVENSYGQERRCHLM
# Variants of: B1
# Conditions: with mtor_human MTOR
row,effect of a mutation on the interaction,Variant
1,disrupting interaction,N41A
